Data on one molecule can be found in patent publication US12692303.

The target of assay [1] is Human interleukin 23 (hIL-23) (human) (UniProt Q9NPF7). Kind of assay: cell-based or functional assay.
Assay [2] concerns the target Natural IL-23 (human) (UniProt Q9NPF7). Kind of assay: binding ELISA, antibody coated at 1 µg/ml, IL-23 titrated, anti-His detection.
The target of assay [3] is Human interleukin 23 (hIL-23) (human) (UniProt Q9NPF7). The experiment in a line: SPR, Biacore T200, antibody captured on Protein A chip, IL-23 in flow, 25 °C, 1:1 model.

Sequence of Human interleukin 23 (hIL-23) (human) (Q9NPF7 20-189 limits assumed, chain 1 of 2): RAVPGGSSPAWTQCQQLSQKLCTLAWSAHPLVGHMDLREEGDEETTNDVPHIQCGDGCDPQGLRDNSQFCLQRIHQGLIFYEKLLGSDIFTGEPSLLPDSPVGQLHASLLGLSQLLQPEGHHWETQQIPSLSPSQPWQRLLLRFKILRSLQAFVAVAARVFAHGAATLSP
Sequence of Human interleukin 23 (hIL-23) (human) (chain, as listed by the source limits assumed, chain 2 of 2): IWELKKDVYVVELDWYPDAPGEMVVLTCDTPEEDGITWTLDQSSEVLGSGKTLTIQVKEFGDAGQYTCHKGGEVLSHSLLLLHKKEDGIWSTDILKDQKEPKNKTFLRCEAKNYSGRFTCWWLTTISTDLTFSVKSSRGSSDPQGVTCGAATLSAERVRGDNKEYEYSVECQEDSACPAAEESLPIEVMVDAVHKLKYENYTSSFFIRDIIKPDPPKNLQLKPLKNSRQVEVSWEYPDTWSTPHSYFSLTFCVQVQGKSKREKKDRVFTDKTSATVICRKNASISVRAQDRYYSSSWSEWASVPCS
Sequence of Natural IL-23 (human) (Q9NPF7 20-189 limits assumed, chain 1 of 2): as the sequence (Q9NPF7 20-189 limits assumed, chain 1 of 2) above
Sequence of Natural IL-23 (human) (chain, as listed by the source limits assumed, chain 2 of 2): as the sequence (chain, as listed by the source limits assumed, chain 2 of 2) above

B1: Risankizumab (antibody, INN chains, looked up, V domains shown)
VH: QVQLVQSGAEVKKPGSSVKVSCKASGYTFTDQTIHWMRQAPGQGLEWIGYIYPRDDSPKYNENFKGKVTITADKSTSTAYMELSSLRSEDTAVYYCAIPDRSGYAWFIYWGQGTLVTVSS
VL: DIQMTQSPSSLSASVGDRVTITCKASRDVAIAVAWYQQKPGKVPKLLIYWASTRHTGVPSRFSGSGSRTDFTLTISSLQPEDVADYFCHQYSSYPFTFGSGTKLEIKR
In general, EC50 refers to the concentration needed to bring the measured effect to its halfway point. By Kd is commonly meant the free concentration of one partner at which half of the binding sites on the other are occupied at equilibrium, for simple one-to-one binding. Broadly, the koff is the rate constant with which the complex falls apart. By kon is commonly meant the second-order rate constant of association. The low end stands for slower complex formation, the high end for faster complex formation. In assay [1], B1 registered an IC50, inhibition of phosphorylation of STAT3 in HEK Blue IL-23 cells induced by IL-23 of 3.51 ng/mL; an IC50, inhibition of release of IFN-γ from human NK cells induced by IL-23 of 11.1 ng/mL; an IC50, inhibition of release of IL-17A from mouse spleen cells induced by IL-23 of 8.43 ng/mL. The molecule further came in with an EC50 in assay [2] of 1.8 ng/mL. For the same molecule, in assay [3], the Kd was determined as 0.052 nM, the koff is 3.7e-05 s⁻¹ and the on-rate constant (kon) came out at 706000 M⁻¹ s⁻¹.
